Results as given in the Human Domainome abundance scans (Beltran et al. 2025).
± gives the uncertainty stated by the source.

B1: KAT8 regulatory NSL complex subunit 2, residues 28 to 91; numbered along this chain, Q9H9L4 (parent)
chain: CAFTHRPCSHPRLEGQEFCIKHILEDKNAPFKQCSYISTKNGKRCPNAAPKPEKKDGVSFCAEH

Variants of: B1
Assay: abundance fitness (aPCA) (normalised: wild type 0, dead -1); higher = more abundant; growth selection in yeast, the domain comes from the species named
Details: Homo sapiens

| Variant | abundance fitness |
| --- | --- |
| CAFTHRPCSHPRLEGQEFCIKHILEDKNAPFKQCSYISTKNGKRCPNAAPKPEKKPGVSFCAEH [D56P] | -0.096 ± 0.074 |
| CAFTHRPCSHPRLEGQEFCIKHILEDKNAPFKQCSYISTKNGKRCPNAAPKPEKKIGVSFCAEH [D56I] | -0.2 ± 0.1 |
| CAFTHRPCSHPRLEGQEFCIKHILEDKNAPFKQCSYISTKNGKRCPNAAPKPEKKKGVSFCAEH [D56K] | 0.011 ± 0.32 |
| CAFTHRPCSHPRLEGQEFCIKHILEDKNAPFKQCSYISTKNGKRCPNAAPKPEKKEGVSFCAEH [D56E] | -0.113 ± 0.21 |
| CAFTHRPCSHPRLEGQEFCIKHILEDKNAPFKQCSYISTKNGKRCPNAAPKPEKKFGVSFCAEH [D56F] | -0.137 ± 0.14 |
| CAFTHRPCSHPRLEGQEFCIKHILEDKNAPFKQCSYISTKNGKRCPNAAPKPEKKSGVSFCAEH [D56S] | -0.067 ± 0.063 |
| CAFTHRPCSHPRLEGQEFCIKHILEDKNAPFKQCSYISTKNGKRCPNAAPKPEKKAGVSFCAEH [D56A] | -0.111 ± 0.085 |
| CAFTHRPCSHPRLEGQEFCIKHILEDKNAPFKQCSYISTKNGKRCPNAAPKPEKKQGVSFCAEH [D56Q] | -0.073 ± 0.098 |
| CAFTHRPCSHPRLEGQEFCIKHILEDKNAPFKQCSYISTKNGKRCPNAAPKPEKKRGVSFCAEH [D56R] | -0.063 ± 0.086 |
| CAFTHRPCSHPRLEGQEFCIKHILEDKNAPFKQCSYISTKNGKRCPNAAPKPEKKNGVSFCAEH [D56N] | -0.073 ± 0.077 |
| CAFTHRPCSHPRLEGQEFCIKHILEDKNAPFKQCSYISTKNGKRCPNAAPKPEKKCGVSFCAEH [D56C] | -0.067 ± 0.19 |
| CAFTHRPCSHPRLEGQEFCIKHILEDKNAPFKQCSYISTKNGKRCPNAAPKPEKKHGVSFCAEH [D56H] | -0.055 ± 0.086 |
| CAFTHRPCSHPRLEGQEFCIKHILEDKNAPFKQCSYISTKNGKRCPNAAPQPEKKDGVSFCAEH [K51Q] | -0.217 ± 0.37 |
| CAFTHRPCSHPRLEGQEFCIKHILEDKNAPFKQCSYISTKNGKRCPNAAPVPEKKDGVSFCAEH [K51V] | -0.035 ± 0.085 |
| CAFTHRPCSHPRLEGQEFCIKHILEDKNAPFKQCSYISTKNGKRCPNAAPEPEKKDGVSFCAEH [K51E] | -0.064 ± 0.13 |
| CAFTHRPCSHPRLEGQEFCIKHILEDKNAPFKQCSYISTKNGKRCPNAAPNPEKKDGVSFCAEH [K51N] | -0.195 ± 0.12 |
| CAFTHRPCSHPRLEGQEFCIKHILEDKNAPFKQCSYISTKNGKRCPNAAPDPEKKDGVSFCAEH [K51D] | -0.05 ± 0.12 |
| CAFTHRPCSHPRLEGQEFCIKHILEDKNAPFKQCSYISTKNGKRCPNAAPPPEKKDGVSFCAEH [K51P] | -0.109 ± 0.08 |
| CAFTHRPCSHPRLEGQEFCIKHILEDKNAPFKQCSYISTKNGKRCPNAAPYPEKKDGVSFCAEH [K51Y] | -0.327 ± 0.094 |
| CAFTHRPCSHPRLEGQEFCIKHILEDKNAPFKQCSYISTKNGKRCPNAAPAPEKKDGVSFCAEH [K51A] | -0.03 ± 0.071 |
| CAFTHRPCSHPRLEGQEFCIKHILEDKNAPFKQCSYISTKNGKRCPNAAPLPEKKDGVSFCAEH [K51L] | -0.101 ± 0.052 |

| Variant | abundance fitness |
| --- | --- |
| CAFTHRPCSHPRLEGQEFCIKHILEDKNAPFKQCSYISTKNGKRCPNAAPMPEKKDGVSFCAEH [K51M] | -0.099 ± 0.11 |
| CAFTHRPCSHPRLEGQEFCIKHILEDKNAPFKQCSYISTKNGKRCPNAAPCPEKKDGVSFCAEH [K51C] | -0.072 ± 0.092 |
| CAFTHRPCSHPRLEGQEFCIKHILEDKNAPFKQCSYISTKNGKRCPNAAPGPEKKDGVSFCAEH [K51G] | -0.033 ± 0.088 |
| CAFTHRPCSHPRLEGQEFCIKHILEDKNAPFKQCSYISTKNGKRCPNAAPIPEKKDGVSFCAEH [K51I] | -0.041 ± 0.088 |
| CAFTHRPCSHPRLEGQEFCIKHILEDKNAPFKQCSYISTKNGKRCPNAAPSPEKKDGVSFCAEH [K51S] | -0.105 ± 0.064 |
| CAFTHRPCSHPRLEGQEFCIKHILEDKNAPFKQCSYISTKNGKRCPNAAPRPEKKDGVSFCAEH [K51R] | -0.087 ± 0.075 |
| CAFTHRPCSHPRLEGQEFCIKHILEDKNAPFKQCSYISTKNGKRCPNAAPHPEKKDGVSFCAEH [K51H] | -0.166 ± 0.091 |
| CAFTHRPCSHPRLEGQEFCIKHILEDKNAPFKQCSYISTKNGKRCPNAAPFPEKKDGVSFCAEH [K51F] | -0.21 ± 0.068 |
| CAFTHRPCSHPRLEGQEFCIKHILEDKNAPFKQCSYISTKNGKRCPNAAPTPEKKDGVSFCAEH [K51T] | -0.112 ± 0.073 |
| CAFTHRPCSHPRLEGQEFCIKHILEDKNAPFKQCSYISTKNGKRCPNAAPKDEKKDGVSFCAEH [P52D] | -0.077 ± 0.084 |
| CAFTHRPCSHPRLEGQEFCIKHILEDKNAPFKQCSYISTKNGKRCPNAAPKKEKKDGVSFCAEH [P52K] | -0.136 ± 0.069 |
| CAFTHRPCSHPRLEGQEFCIKHILEDKNAPFKQCSYISTKNGKRCPNAAPKVEKKDGVSFCAEH [P52V] | -0.083 ± 0.053 |
| CAFTHRPCSHPRLEGQEFCIKHILEDKNAPFKQCSYISTKNGKRCPNAAPKLEKKDGVSFCAEH [P52L] | -0.106 ± 0.046 |
| CAFTHRPCSHPRLEGQEFCIKHILEDKNAPFKQCSYISTKNGKRCPNAAPKSEKKDGVSFCAEH [P52S] | -0.082 ± 0.052 |
| CAFTHRPCSHPRLEGQEFCIKHILEDKNAPFKQCSYISTKNGKRCPNAAPKAEKKDGVSFCAEH [P52A] | -0.072 ± 0.046 |
| CAFTHRPCSHPRLEGQEFCIKHILEDKNAPFKQCSYISTKNGKRCPNAAPKQEKKDGVSFCAEH [P52Q] | -0.061 ± 0.078 |
| CAFTHRPCSHPRLEGQEFCIKHILEDKNAPFKQCSYISTKNGKRCPNAAPKGEKKDGVSFCAEH [P52G] | -0.068 ± 0.054 |
| CAFTHRPCSHPRLEGQEFCIKHILEDKNAPFKQCSYISTKNGKRCPNAAPKIEKKDGVSFCAEH [P52I] | -0.136 ± 0.14 |
| CAFTHRPCSHPRLEGQEFCIKHILEDKNAPFKQCSYISTKNGKRCPNAAPKWEKKDGVSFCAEH [P52W] | -0.053 ± 0.063 |
| CAFTHRPCSHPRLEGQEFCIKHILEDKNAPFKQCSYISTKNGKRCPNAAPKCEKKDGVSFCAEH [P52C] | -0.188 ± 0.086 |
| CAFTHRPCSHPRLEGQEFCIKHILEDKNAPFKQCSYISTKNGKRCPNAAPKFEKKDGVSFCAEH [P52F] | -0.01 ± 0.12 |
